Test results: PMC2928392 (Pharmacogenetics and Genomics, 2009)

T1: UDP-glucuronosyltransferase 2A3 (UGT2A3) (Homo sapiens, UniProt Q6UWM9)
T1 sequence (Q6UWM9 24-527): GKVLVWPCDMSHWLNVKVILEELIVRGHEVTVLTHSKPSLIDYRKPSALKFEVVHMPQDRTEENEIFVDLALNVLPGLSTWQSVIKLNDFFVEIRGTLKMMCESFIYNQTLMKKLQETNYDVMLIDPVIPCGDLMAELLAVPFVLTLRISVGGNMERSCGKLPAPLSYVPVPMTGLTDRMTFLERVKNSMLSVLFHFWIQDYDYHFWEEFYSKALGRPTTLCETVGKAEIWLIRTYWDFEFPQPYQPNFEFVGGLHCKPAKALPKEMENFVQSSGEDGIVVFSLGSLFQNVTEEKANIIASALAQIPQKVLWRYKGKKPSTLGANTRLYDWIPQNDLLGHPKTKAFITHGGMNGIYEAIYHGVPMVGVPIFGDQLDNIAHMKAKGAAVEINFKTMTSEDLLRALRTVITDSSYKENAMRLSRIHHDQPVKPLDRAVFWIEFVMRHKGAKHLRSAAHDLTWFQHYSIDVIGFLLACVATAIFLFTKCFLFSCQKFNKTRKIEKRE

B1: UDP-glucuronosyltransferase 2A2 (UGT2A2) (Homo sapiens) (protein)
chain: MVSIRDFTMPKKFVQMLVFNLTLTEVVLSGNVLIWPTDGSHWLNIKIILEELIQRNHNVTVLASSATLFINSNPDSPVNFEVIPVSYKKSNIDSLIEHMIMLWIDHRPTPLTIWAFYKELGKLLDTFFQINIQLCDGVLKNPKLMARLQKGGFDVLVADPVTICGDLVALKLGIPFMYTLRFSPASTVERHCGKIPAPVSYVPAALSELTDQMTFGERIKNTISYSLQDYIFQSYWGEWNSYYSKILGRPTTLCETMGKAEIWLIRTYWDFEFPRPYLPNFEFVGGLHCKPAKPLPKEMEEFIQSSGKNGVVVFSLGSMVKNLTEEKANLIASALAQIPQKVLWRYKGKKPATLGNNTQLFDWIPQNDLLGHPKTKAFITHGGTNGIYEAIYHGVPMVGVPMFADQPDNIAHMKAKGAAVEVNLNTMTSVDLLSALRTVINEPSYKENAMRLSRIHHDQPVKPLDRAVFWIEFVMRHKGAKHLRVAAHDLTWFQYHSLDVIGFLLVCVTTAIFLVIQCCLFSCQKFGKIGKKKKRE
B2: UDP-glucuronosyltransferase 2A1 (UGT2A1) (Homo sapiens) (protein)
chain: GNVLIWPMEGSHWLNVKIIIDELIKKEHNVTVLVASGALFITPTSNPSLTFEIYKVPFGKERIEGVIKDFVLTWLENRPSPSTIWRFYQEMAKVIKDFHMVSQEICDGVLKNQQLMAKLKKSKFEVLVSDPVFPCGDIVALKLGIPFMYSLRFSPASTVEKHCGKVPYPPSYVPAVLSELTDQMSFTDRIRNFISYHLQDYMFETLWKSWDSYYSKALGGLLLCCPGWSAVADLGSLQPLLPGFKRFSRLSLHCSWDYRLPAGRPTTLCETMGKAEIWLIRTYWDFEFPRPYLPNFEFVGGLHCKPAKPLPKVLWRYKGKKPATLGNNTQLFDWIPQNDLLGHPKTKAFITHGGTNGIYEAIYHGVPMVGVPMFADQPDNIAHMKAKGAAVEVNLNTMTSVDLLSALRTVINEPSYKENAMRLSRIHHDQPVKPLDRAVFWIEFVMRHKGAKHLRVAAHDLTWFQYHSLDVIGFLLVCVTTAIFLVIQCCLFSCQKFGKIGKKKKRE

Tests used:
[1] = target: T1, UDP-glucuronosyltransferase 2A3 (UGT2A3); assay: glucuronidation rate at […], radiochemical HPLC; type: cell-based
[2] = substrate: O=C(O)[C@H]1O[C@H](OP(=O)(O)OP(=O)(O)OC[C@H]2O[C@@H](n3ccc(=O)[nH]c3=O)[C@H](O)[C@@H]2O)[C@H](O)[C@@H](O)[C@@H]1O; assay: cells, lysate or membranes; conditions: MgCl2 ([…]) co-substrate
glucuronidation kinetics [3] = substrate: O=[N+]([O-])c1ccc(O)cc1; assay: glucuronidation kinetics; type: cell-based, Homo sapiens; conditions: UDP-glucuronic acid; MgCl2 ([…])
glucuronidation kinetics [4] = substrate: Oc1ccc(-c2ccccc2)cc1; assay: glucuronidation kinetics; type: cell-based, Homo sapiens; conditions: UDP-glucuronic acid; MgCl2 ([…])
glucuronidation kinetics [5] = substrate: Cc1cc(=O)oc2cc(O)ccc12; assay: glucuronidation kinetics; type: cell-based, Homo sapiens; conditions: UDP-glucuronic acid; MgCl2 ([…])

Row | Molecule | glucuronidation rate at 200 μM, radiochemical HPLC (4.9 pmol/min/mg) [1] | Km [2] [µM] | Vmax [2] [pmol/min/mg] | Km (glucuronidation kinetics [3]) [µM] | Vmax (glucuronidation kinetics [3]) [pmol/min/mg] | Km (glucuronidation kinetics [4]) [µM] | Vmax (glucuronidation kinetics [4]) [pmol/min/mg] | Km (glucuronidation kinetics [5]) [µM] | Vmax (glucuronidation kinetics [5]) [pmol/min/mg]
1 | C[C@H](CCC(=O)O)[C@H]1CC[C@H]2[C@@H]3C[C@H](O)[C@@H]4C[C@H](O)CC[C@]4(C)[C@H]3CC[C@]12C [HDCA, hyodeoxycholic acid] | UGT2A3 exhibited glucuronidating activity only towards HDCA | – | – | – | – | – | – | – | –
2 | B1 | – | 55.1 | 91.4 ± 3 | 4469 | 69 ± 3 | 245 | 124 ± 2 | 2998 | 39 ± 0.9
3 | B2 | – | 39.5 | 292 ± 12 | 303 | 141 ± 5 | – | – | – | –
